From the supplement of paper PMC9170038

Tested on: MS2 coat protein
Test: apparent KD of MS2 coat protein; higher = weaker reporter binding
Settings: Eterna round: R107
Summary of the method: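 Binding of SNAP-549-labelled MS2 coat protein was measured on designed RNA switches transcribed on-chip from Illumina sequencing clusters. The protein rose in twofold steps from 0.7 or 1.5 nM to 3 µM, with 0.8–1.5 h per step early on and 10–20 min per step later, in 100 mM Tris-HCl pH 7.5, 80 mM KCl, 4 mM MgCl2, without or with constant ligand. Each design's apparent KD is the median of fits to its normalised cluster binding curves.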

[1] = input ligand: theophylline 20 uM
[2] = input ligand: theophylline 2 mM
[3] = input ligand: tryptophan 2.4 mM

Sequence	apparent KD of MS2 coat protein (input ligand: arginine 13.2 mM)	apparent KD of MS2 coat protein [1]	apparent KD of MS2 coat protein [2]	apparent KD of MS2 coat protein [3]	apparent KD of MS2 coat protein (input ligand: none)
AUUAACAUGAGGAUCACCCAUGUGGCCCACCGAGGACCGGUACGGCCGCCACUCGUCGGAAAGGCUAAAUUUAUGAAGUCCAAAA [theeternabot_sameState_MS2_Trp_A_40]	0.0186 µM	0.0254 µM	0.017 µM		
UCGGAUGCGGCGGCCGCCACUCGCGGAUAACGAUAGCUUAACAUGAGGAUCACCCAUGUGUCAUGGAGGACCGGGCCCAUACCGU [pbpmullin]	0.0188 µM	0.0364 µM	0.0263 µM		
AUUAAUAAUAUGUAGACGGCGGAGACGAGACGAGGACCGGUACGGCCGCCACUCGUGUUAGUUAACAUGAGGAUCACCCAUGUUA [#10 Tryptophan A Same State]	0.0112 µM	0.0175 µM	0.0139 µM		
CCUCAAUAGACGGCCGCCACUGAGACAUGAGGAUACAUGAGGAUCACCCAUGUGGGUGUGUCACGCAGGACCGGGUCAAGACCCG [Tryp B SS t2]	0.183 µM	0.497 µM	0.794 µM		
UCUUUCUAUGUAGAUACCAGCAUGUUAUAUUUCUAAUGACAUGAGGAUCACCCAUGUAAAUGCCCUUGGCAGCUACAUUUUCUUU [SSTHB #4]	0.0216 µM	0.0223 µM		0.0237 µM	
ACAUGAGGAUCACCCAUGUUCCUCAUUGAUACCAGUGAAUUUAGACGCCCUUGGCAGCGAGUUUUUUUAUAAGUUUUUUUUUUUU [6.J]	0.276 µM	0.913 µM		0.874 µM	
AUACAUGAGGAUCACCCAUGUCACACAGAAGGAGCGGCUGUAGAGCCAGGUAGGUCGCUGUACUCAAAAUACUUCAUACUCAUGU [JR_Nu_ExcArginiA_Sub033]	0.0349 µM	0.0347 µM	0.037 µM	0.0275 µM	0.033 µM
ACAUGAGGAUCACCCAUGUUGCUGACAGAAGGAGCGUGAUUAAGCACAGGUAGGUCGCUGUUGGUAUCGAGCGUUAGCUCGAUAC [SSArg A #8]	0.0346 µM	0.0417 µM	0.0337 µM	0.05 µM	0.032 µM
AUCCCGUGAGCGGCCGCCACUGGAGGCUUUGCGCGACAUGAGGAUCACCCAUGUGUGCCCGGCGUUAGGACCGGGUUCGCGUGGA [#1 Same State - Tryptophan B Attempt #17 (HarryS)]	0.0293 µM	0.0713 µM	0.0651 µM	0.034 µM	0.0256 µM
ACGAUAGGACCUGAGGAACACCCAGGUGAUACCAGCCUGGAAACAGGCCCUUGGCAGCACCAAUACUCCAAUAACCUAUCGAAUA [TheoAX 12 #MicroSwitchBubble #AlternativeMS2]	0.141 µM	0.521 µM	0.366 µM	0.518 µM	0.547 µM
AGUCACAUGAGGAUCACCCAUGUGCCAGAACGAGGACCGGUACGGCCGCCACUCGAGGCGUCCGUCGACAAUAAUGUGAACUGCA [theeternabot_sameState_MS2_Trp_A_48]	0.0111 µM	0.0167 µM	0.0116 µM		
GUUGGAUACUCGGCCGCCACUGAGAGAGUCAUGUGAACAUGAGGAUCACCCAUGUAAUAUAUAUACAGGACCGGGAGUGUUGUAA [4.I]	0.0203 µM	0.0437 µM	0.0325 µM		
UUCGUUUACGGAAGGAGCGACGGACAUCGGUGAACGACGCACAUGAGGAUCACCCAUGUACGUCAGGUAGGUCGCCGUUAAGAGU [Somama]	0.023 µM	0.0277 µM	0.0196 µM	0.0192 µM	0.0174 µM
AUGUCACAUGAGGAUCACCCAUGUAUGGAUACCAGUUUAGUGAAUAACCCUUGGCAGCCAAGGAUGCGACAGAAAUCCGGAAAAC [theeternabot_sameState_MS2_Theo_A_22]	0.019 µM	0.0266 µM		0.0205 µM	
AGCGACAUGCGUGAUACCAGCUACAUGAGGAUCACCCAUGUACGUCAGAAAUGACUGUGUAGCCCUUGGCAGCAUAAUGCAUGUC [Exclusion - Theophylline B (Freestyle 19)]	0.0383 µM	0.0606 µM		0.044 µM	
UAAACUACACAUGAGGAUCACCCAUGUGGCCGAGGACCGGUACGGCCGCCACUCGUGUGUUAAUAAAAGAACCGCAAAGUUCUUU [Raesonisso]	0.0742 µM	0.41 µM	0.678 µM		
AAACAGUCGGACAUGAGGAUCACCCAUGUGCGAGGACCGGUACGGCCGCCACUCGACAAGGGCGGUCCCGAAGCAAACAUACGCG [Enedquceor]	0.0122 µM	0.0337 µM	0.0213 µM	0.0254 µM	0.0165 µM
UGUCAUGGAAACAUGACAGGUCUUACCGGUCGAGGACCGGUACGGCCGCCACUCGAUUGGUGGCACAUGAGGAUCACCCAUGUUA [SS Tryp A #16]	0.0218 µM	0.0473 µM	0.0343 µM		
AGAUGUAGCGGAAGGAGCGUCAUGAGGAUCACCCAUGACUCCCGUUGUGGGAGUUCCUUAGGUCAGGUAGGUCGCCGUUACGUCA [Omei Arg B SS B v5]	0.0914 µM	0.563 µM	0.597 µM	0.426 µM	0.39 µM

Sequence	apparent KD of MS2 coat protein (input ligand: arginine 13.2 mM)	apparent KD of MS2 coat protein [1]	apparent KD of MS2 coat protein [2]	apparent KD of MS2 coat protein [3]	apparent KD of MS2 coat protein (input ligand: none)
UUAUGAUGUUCCGAUACCAGCCAUGUGGUUCUAACUUAACAUGAGGAUCACCCAUGUACCGGCCCUUGGCAGCGGAUGUGGAUUA [Flamini]	0.012 µM	0.0148 µM		0.0126 µM	
AUCGUACCUGGUGAUACCAGCAAGUGAUUAUAACAUGAGGAUCACCCAUGUAAUCAGUGAUGCCCUUGGCAGCAUAAUCGGUACA [#24 Same State - Theophylline B]	0.0269 µM	0.0378 µM		0.0267 µM	
AGUCUUAUAGGAAGGAGCGCAAUCAUCACAUGAGGAUCACCCAUGUCAAGGUGAGAGUCAUUGCAGGUAGGUCGCCUAACUAAGA [Same State - Arginine B (Freestyle 9)]	0.15 µM	0.173 µM	0.251 µM	0.213 µM	0.241 µM
ACGACGCAUAGUGAUACCAGUAGAACAUGAGGAUCACCCAUGUCUGUGGCGCACCACCUCUGCCCUUGGCAGCACUAUGCGUCAG [SSTheo B #9]	0.0126 µM	0.0174 µM		0.0141 µM	
AAUUAUCACGGAAGGAGCGUCAUGAAAUUGAUACAUGAGGAUCACCCAUGUGAGUGUUAGAGACAGGUAGGUCGCCGAUUAUUGA [JR_AAArginiB_Sub028]	0.0249 µM	0.0431 µM	0.0493 µM	0.031 µM	0.0307 µM
AGGACGGUCGGAAGGAGCGGUACAUGAGGAUCACCCAUGUACUUCUGGGCAUCCGUAGAGUGCCAGGUAGGUCGCCGAUUGCGGG [XArg-B10]	0.0164 µM	0.0175 µM	0.0106 µM	0.0129 µM	0.00936 µM
ACAUUUAACUGAAGGAGCGUGAUAUUUACAUGAGGAUCACCCAUGUCUUUCAUGAUAUAUUCACAGGUAGGUCGCAGACUAAUGA [JR_ExcArginiB_Sub006]	0.118 µM	0.16 µM	0.305 µM	0.184 µM	0.125 µM
GGACUAACCAGAAGGAGCGACACGCAGAAACUGCUAAAUCCUCCGCACGAGGAUCACCCGUGUCAGGUAGGUCGCUGGUUAGUCG [ArgBX 28]	0.0362 µM	0.0667 µM	0.0475 µM	0.0499 µM	0.0455 µM
AUAAGUAAGUUUUCGUGUUUUAUUACAGAUACCAGACUAUACGUUGUCCCUUGGCAGCUGGAUUACAUGAGGAUCACCCAUGUUG [#25 Exclusion-TheophyllineA]	0.019 µM	0.0339 µM		0.0239 µM	
CCGUCCCUCGGAAGGAGCGGCGCAAUGUAAGGGACCUUUUAUACAUGAGGAUCACCCAUGUGCCAGGUAGGUCGCCGAGAGCGUG [Erxeatge]	0.0795 µM	0.074 µM	0.145 µM	0.14 µM	0.0772 µM
AGCCCUGUACUAGAUACCAGCUACAUGAGGAUCACCCAUGUGCGUCAAGACUGACUGUGUAGCCCUUGGCAGCUGCUCGCAUGUA [Exclusion - Theophylline B (Freestyle 2)]	0.0197 µM	0.0299 µM		0.0209 µM	
AGCCUAUUACAUGAGGAUCACCCAUGUGAUACCAGUCAGGAAACUGACCCUUGGCAGCGCAUGAGGAUCACCCAUGCGCUAGGCA [Omei Theo A Exc A v5]	0.00915 µM	0.0123 µM		0.01 µM	
AAUUAAACAUCGGCCGCCACUUACUCAUGAGGUAACAACAUGAGGAUCACCCAUGUUUGAGGAUCAAGGACCGGGAUGUAAUAAU [AstrosSSTryB#2]	0.0232 µM	0.0385 µM	0.0368 µM		
CUAUAUGGAAACAUAUAGAAGCGAAAGCAACGAGGACCGGUACGGCCGCCACUCGAAGAGUGGUGGACAUGAGGAUCACCCAUGU [Design 3]	0.0408 µM	0.0716 µM	0.0996 µM		
CUUCGCAUAGGAAAACUAUGUGAAGAAAAUCGAGGACCGGUACGGCCGCCACUCGUCCUCAACAUGAGGAUCACCCAUGUAAUAA [Mat - Exclusion - Trytophan A - D6]	0.0173 µM	0.0212 µM	0.0204 µM		
AACGUAUACAGAAGGAGCGUGAAAUAAGUAAAUUAAUAAUAAACAUGAGGAUCACCCAUGUCACAGGUAGGUCGCUGUAUUCGUA [JR_ExcArginiB_Sub017]	0.0155 µM	0.0236 µM	0.0215 µM	0.0184 µM	0.0215 µM
UGACAUUGCUCAGAUACCAGACAUGAGGAUCACCCAUGUACCAAGAAAACGUACAUAAAUGUCCCUUGGCAGCUGAGCAAUGUCU [TheoBX 10 #MS2Left #Theo2]	0.175 µM	0.535 µM		0.531 µM	
AAGACAUGAGGAUCACCCAUGUGUCAUGAAGGAGCGUCGGAAAUGACAGGUAGGUCGCAUGACCGUUGGCGCCGGAAACGGCGCA [SSAA #15]	0.0238 µM	0.0353 µM	0.0333 µM	0.0235 µM	0.0305 µM
GGAUAGGACAGAAGGAGCGACAUGGCGACGAAAGUCGGACCUUCACAUGAGGAUCACCCAUGUCAGGUAGGUCGCUGUCCUAUCG [ArgXB 6 #MS2Gate #StaticStem]	0.038 µM	0.0552 µM	0.0524 µM	0.0461 µM	0.0484 µM
